The target in this experiment is T1, rara_human RARA (UniProt P10276).
T1 sequence: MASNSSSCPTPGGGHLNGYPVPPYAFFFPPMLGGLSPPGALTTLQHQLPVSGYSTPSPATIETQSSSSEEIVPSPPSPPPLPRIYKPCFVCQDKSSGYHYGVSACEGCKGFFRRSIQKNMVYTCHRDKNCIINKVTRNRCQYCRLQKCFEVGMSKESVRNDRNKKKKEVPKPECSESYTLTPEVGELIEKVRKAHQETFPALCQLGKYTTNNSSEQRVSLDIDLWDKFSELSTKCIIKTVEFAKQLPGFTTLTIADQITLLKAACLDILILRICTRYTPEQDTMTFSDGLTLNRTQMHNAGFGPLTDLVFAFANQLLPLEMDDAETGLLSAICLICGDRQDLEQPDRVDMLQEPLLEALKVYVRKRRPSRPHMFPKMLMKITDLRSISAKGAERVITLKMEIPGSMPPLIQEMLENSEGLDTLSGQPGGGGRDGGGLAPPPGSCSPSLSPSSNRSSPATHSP

For the substance “LIM domain-containing protein ajuba (Mus musculus) (from UniProt Q91XC0) L292A;L293A;L295A;L418A;I419A;L420A;I488A;V489A;V491A”, the “effect of a mutation on the interaction” value is “disrupting interaction strength”.

Values taken from IntAct's records for PubMed 20133701.
